In patent US20040208873A1 one finds expression level of CD11b on IL-8 stimulated PMN (MFI, flow cytometry) and expression of CD62L on IL-8 stimulated PMN (MFI, flow cytometry) data, which are given here for one substance.

In the experiment the target is recombinant human IL-8, 72 aa form (monocyte derived) (human) (UniProt P10145). The experiment is described as follows: cell-based or functional assay.
Chain of recombinant human IL-8, 72 aa form (monocyte derived) (human) (P10145 28-99 limits assumed): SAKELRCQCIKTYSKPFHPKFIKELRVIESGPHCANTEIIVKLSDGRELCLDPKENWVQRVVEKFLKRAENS

On to “irrelevant human isotype control antibody (Example 8)”, for which the expression level of CD11b on IL-8 stimulated PMN (MFI, flow cytometry) is 2400 MFI and the expression of CD62L on IL-8 stimulated PMN (MFI, flow cytometry) came out at 150 MFI.
